B1: ZAKα kinase (wild-type) (protein)
chain: MSSLGASFVQIKFDDLQFFENCGGGSFGSVYRAKWISQDKEVAVKKLLKIEKEAEILSVLSHRNIIQFYGVILEPPNYGIVTEYASLGSLYDYINSNRSEEMDMDHIMTWATDVAKGMHYLHMEAPVKVIHRDLKSRNVVIAADGVLKICDFGASRFHNHTTHMSLVGTFPWMAPEVIQSLPVSETCDTYSYGVVLWEMLTREVPFKGLEGLQVAWLVVEKNERLTIPSSCPRSFAELLHQCWEADAKKRPSFKQIISILESMSNDTSLPDKCNSFLHNKAEWRCEIEATLERLKKLERDLSFKEQELKERERRLKMWEQKLTEQSNTPLLPSFEIGAWTEDDVYCWVQQLVRKGDSSAEMSVYASLFKENNITGKRLLLLEEEDLKDMGIVSKGHIIHFKSAIEKLTHDYINLFHFPPLIKDSGGEPEENEEKIVNLELVFGFHLKPGTGPQDCKWKMYMEMDGDEIAITYIKDVTFNTNLPDAEILKMTKPPFVMEKWIVGIAKSQTVECTVTYESDVRTPKSTKHVHSIQWSRTKPQDEVKAVQLAIQTLFTNSDGNPGSRSDSSADCQWLDTLRMRQIASNTSLQRSQSNPILGSPFFSHFDGQDSYAAAVRRPQVPIKYQQITPVNQSRSSSPTQYGLTKNFSSLHLNSRDSGFSSGNTDTSSERGRYSDRSRNKYGRGSISLNSSPRGRYSGKSQHSTPSRGRYPGKFYRVSQSALNPHQSPDFKRSPRDLHQPNTIPGMPLHPETDSRASEEDSKVSEGGWTKVEYRKKPHRPSPAKTNKERARGDHRGWRNF
B2: p38β (protein)
chain: MSGPRAGFYRQELNKTVWEVPQRLQGLRPVGSGAYGSVCSAYDARLRQKVAVKKLSRPFQSLIHARRTYRELRLLKHLKHENVIGLLDVFTPATSIEDFSEVYLVTTLMGADLNNIVKCQALSDEHVQFLVYQLLRGLKYIHSAGIIHRDLKPSNVAVNEDCELRILDFGLARQADEEMTGYVATRWYRAPEIMLNWMHYNQTVDIWSVGCIMAELLQGKALFPGSDYIDQLKRIMEVVGTPSPEVLAKISSEHARTYIQSLPPMPQKDLSSIFRGANPLAIDLLGRMLVLDSDQRVSAAEALAHAYFSQYHDPEDEPEAEPYDESVEAKERTLEEWKELTYQEVLSFKPPEPPKPPGSLEIEQ

Target: T1, recombinant SNAP-tagged NLRP1^DR purified from bacteria
T1 chain: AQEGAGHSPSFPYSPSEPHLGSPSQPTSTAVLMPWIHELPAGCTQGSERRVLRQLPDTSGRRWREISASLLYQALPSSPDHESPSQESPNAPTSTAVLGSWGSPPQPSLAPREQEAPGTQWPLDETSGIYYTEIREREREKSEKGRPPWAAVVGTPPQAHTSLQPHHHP

Row | Protein | phosphorylation in a recombinant kinase reaction (PhosTag SDS-PAGE, SNAP ligand fluorescence) | phosphorylation in a recombinant kinase assay
1 | B1 | recombinant ZAKα is sufficient to phosphorylate SNAP-tagged NLRP1^DR purified from bacteria | –
2 | B2 | – | both p38α/β can phosphorylate NLRP1^DR in a recombinant kinase assay
